Assay [1] addresses reaction center-light harvesting 1-PufX (RC-LH1-PufX) complex (Rhodobacter sphaeroides) (UniProt P0C0Y7). The assay can be described thus: atomic force microscopy; tapping mode AFM of intact native chromatophore vesicles immobilised on mica; imaging buffer 300 mM KCl/20 mM MOPS pH 7.4, with and without 10 mM MgCl2; proteins in their native membrane.
Assay [2] concerns the target subunit of the light-harvesting 2 (LH2) complex (Rhodobacter sphaeroides). The assay can be described thus: atomic force microscopy; tapping mode AFM of reconstituted flat LH2 membranes (2D crystals) immobilised on a mica substrate, same approach as for chromatophores.
Assay [3] shares this target. The assay is described as above. The source holds these as a separate data set.
Assay [4] has the same target. Put plainly: atomic force microscopy; tapping mode AFM of intact native chromatophore vesicles immobilised on mica; imaging buffer 300 mM KCl/20 mM MOPS pH 7.4, with and without 10 mM MgCl2; proteins in their native membrane.
Assay [5] shares this target. Described as above. This is another data set of the same source.

What is called stoichiometry N is a count of units in the complex or per binding partner. In the case of “reaction center-light harvesting 1-PufX (RC-LH1-PufX) complex (from UniProt P0C0Y7 1-260; P13402 1-82)”, the stoichiometry N in assay [1] amounted to 2.

As for “subunit of the light-harvesting 2 (LH2) complex”, the stoichiometry N in assay [2] was 9; in assay [3], 8.3; in assay [4], 9; in assay [5], 8.6.
